Measured values from article PMC8393326 (2021).

T1: ERBB4 (Homo sapiens)
T1 chain: HRNTVV

T2: HTLV1 Tax (Human T-cell leukemia virus 1)
T2 chain: FRETEV

T3: Erbin PDZ binder
T3 chain: TGWETWV

B1: PSD95-PDZ2 155-249 (protein)
chain: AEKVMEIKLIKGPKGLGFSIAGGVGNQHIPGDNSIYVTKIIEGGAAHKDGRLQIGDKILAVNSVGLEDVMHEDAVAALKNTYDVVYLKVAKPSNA
B2: Erbin-PDZ PDZ (protein)
chain: AKQEIRVRVEKDPELGFSISGGVGGRGNPFRPDDDGIFVTRVQPEGPASKLLQPGDKIIQANGYSFINIEHGQAVSLLKTFQNTVELIIVREVSS
B3: PSD95-PDZ3 302-415 (protein)
chain: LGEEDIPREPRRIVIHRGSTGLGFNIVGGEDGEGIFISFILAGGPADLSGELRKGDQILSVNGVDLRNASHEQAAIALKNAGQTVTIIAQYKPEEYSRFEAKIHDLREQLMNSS

Tests used:
Test in all cases: ITC
[1] = molecular target: HTLV3 Tax (Human T-cell leukemia virus 3)
[2] = molecular target: AdV E4 ORF1 (Human adenovirus)
[3] = molecular target: T1, ERBB4
[4] = molecular target: T2, HTLV1 Tax
[5] = molecular target: T3, Erbin PDZ binder

Binder	Kd [1] [µM]	Kd [2] [µM]	Kd [3] [µM]	Kd [4] [µM]	Kd [5] [µM]
B1	20	11.5	13.9	1.5	5.7
B2	23	–	–	7.8	0.24
B3	43	–	41.6	3.8	–
